Measurements: paper PMC2738593 (Nature methods, 2009)
Like-named read-outs stand apart in the source and are kept apart here.

How the values were obtained:
crystal structure [1] = biological target: the molecule itself; experiment: crystal structure
crystal structure [2] = biological target: the molecule itself; experiment: crystal structure; remark: listed apart in the source

Protein | stoichiometry N (crystal structure [1]) | stoichiometry N (crystal structure [2])
cysteine-less HCN2I fragment (carboxyl-terminal region of mouse HCN2, C-linker and CNBD, residues 443-640) (domain or fragment, UniProt O88703 443-640, looked up) DSSRRQYQEKYKQVEQYMSFHKLPADFRQKIHDYYEHRYQGKMFDEDSILGELNGPLREEIVNFNNRKLVASMPLFANADPNFVTAMLTKLKFEVFQPGDYIIREGTIGKKMYFIQHGVVSVLTKGNKEMKLSDGSYFGEISLLTRGRRTASVRADTYSRLYSLSVDNFNEVLEEYPMMRRAFETVAIDRLDRIGKKN | 4 | –
wild-type mouse HCN2I construct (carboxyl-terminal fragment of HCN2, C-linker and CNBD, residues 443-640) (domain or fragment, UniProt O88703 443-640, looked up) DSSRRQYQEKYKQVEQYMSFHKLPADFRQKIHDYYEHRYQGKMFDEDSILGELNGPLREEIVNFNCRKLVASMPLFANADPNFVTAMLTKLKFEVFQPGDYIIREGTIGKKMYFIQHGVVSVLTKGNKEMKLSDGSYFGEICLLTRGRRTASVRADTYCRLYSLSVDNFNEVLEEYPMMRRAFETVAIDRLDRIGKKN | – | 4
